Measured values published in the Human Domainome abundance scans (Beltran et al. 2025).
± gives the uncertainty stated by the source.

B1: Peroxisome proliferator-activated receptor delta, residues 71 to 145; numbered along this chain, Q03181 (parent)
chain: NMECRVCGDKASGFHYGVHACEGCKGFFRRTIRMKLEYEKCERSCKIQKKNRNKCQYCRFQKCLALGMSHNAIRF
B2: POU domain, class 2, transcription factor 2, residues 200 to 269; numbered along this chain, P09086 (parent)
chain: LEELEQFARTFKQRRIKLGFTQGDVGLAMGKLYGNDFSQTTISRFEALNLSFKNMCKLKPLLEKWLNDAE

Variants of: B1
Test: abundance fitness (aPCA) (normalised: wild type 0, dead -1); higher = more abundant; growth selection in yeast, the domain comes from the species named
Settings: Homo sapiens

Compared with IMECRVCGDKASGFHYGVHACEGCKGFFRRTIRMKLEYEKCERSCKIQKKNRNKCQYCRFQKCLALGMSHNAIRF [N1I], WMECRVCGDKASGFHYGVHACEGCKGFFRRTIRMKLEYEKCERSCKIQKKNRNKCQYCRFQKCLALGMSHNAIRF [N1W] is lower in abundance fitness: 0.16 ± 0.078 for the first, -0.593 ± 0.12 for the second.

Going from RMECRVCGDKASGFHYGVHACEGCKGFFRRTIRMKLEYEKCERSCKIQKKNRNKCQYCRFQKCLALGMSHNAIRF [N1R] to VMECRVCGDKASGFHYGVHACEGCKGFFRRTIRMKLEYEKCERSCKIQKKNRNKCQYCRFQKCLALGMSHNAIRF [N1V], the abundance fitness rises from -0.296 ± 0.064 to -0.141 ± 0.057.

EMECRVCGDKASGFHYGVHACEGCKGFFRRTIRMKLEYEKCERSCKIQKKNRNKCQYCRFQKCLALGMSHNAIRF [N1E] and AMECRVCGDKASGFHYGVHACEGCKGFFRRTIRMKLEYEKCERSCKIQKKNRNKCQYCRFQKCLALGMSHNAIRF [N1A] are within error of each other in abundance fitness: -0.07 ± 0.065 for the first, -0.179 ± 0.067 for the second.

Compared with GMECRVCGDKASGFHYGVHACEGCKGFFRRTIRMKLEYEKCERSCKIQKKNRNKCQYCRFQKCLALGMSHNAIRF [N1G], DMECRVCGDKASGFHYGVHACEGCKGFFRRTIRMKLEYEKCERSCKIQKKNRNKCQYCRFQKCLALGMSHNAIRF [N1D] is higher in abundance fitness: -0.212 ± 0.049 for the first, -0.049 ± 0.066 for the second.

LMECRVCGDKASGFHYGVHACEGCKGFFRRTIRMKLEYEKCERSCKIQKKNRNKCQYCRFQKCLALGMSHNAIRF [N1L] and PMECRVCGDKASGFHYGVHACEGCKGFFRRTIRMKLEYEKCERSCKIQKKNRNKCQYCRFQKCLALGMSHNAIRF [N1P] are within error of each other in abundance fitness: -0.455 ± 0.084 for the first, -0.475 ± 0.21 for the second.

KMECRVCGDKASGFHYGVHACEGCKGFFRRTIRMKLEYEKCERSCKIQKKNRNKCQYCRFQKCLALGMSHNAIRF [N1K] and YMECRVCGDKASGFHYGVHACEGCKGFFRRTIRMKLEYEKCERSCKIQKKNRNKCQYCRFQKCLALGMSHNAIRF [N1Y] are within error of each other in abundance fitness: -0.075 ± 0.073 for the first, -0.266 ± 0.15 for the second.

QMECRVCGDKASGFHYGVHACEGCKGFFRRTIRMKLEYEKCERSCKIQKKNRNKCQYCRFQKCLALGMSHNAIRF [N1Q] and CMECRVCGDKASGFHYGVHACEGCKGFFRRTIRMKLEYEKCERSCKIQKKNRNKCQYCRFQKCLALGMSHNAIRF [N1C] are within error of each other in abundance fitness: -0.218 ± 0.12 for the first, -0.421 ± 0.11 for the second.

TMECRVCGDKASGFHYGVHACEGCKGFFRRTIRMKLEYEKCERSCKIQKKNRNKCQYCRFQKCLALGMSHNAIRF [N1T] and HMECRVCGDKASGFHYGVHACEGCKGFFRRTIRMKLEYEKCERSCKIQKKNRNKCQYCRFQKCLALGMSHNAIRF [N1H] are within error of each other in abundance fitness: -0.012 ± 0.067 for the first, -0.155 ± 0.11 for the second.

Going from NAECRVCGDKASGFHYGVHACEGCKGFFRRTIRMKLEYEKCERSCKIQKKNRNKCQYCRFQKCLALGMSHNAIRF [M2A] to NCECRVCGDKASGFHYGVHACEGCKGFFRRTIRMKLEYEKCERSCKIQKKNRNKCQYCRFQKCLALGMSHNAIRF [M2C], the abundance fitness rises from -0.526 ± 0.091 to -0.064 ± 0.08.

Variants of: B2
Test: as above
Settings: Homo sapiens

First: LEELEQFARTFKQRRIKLGFTQGDVGLAMGKLYGNDFSQTTISRFEALNLSFKNMCKLKPLLEKWLNDVE [A69V]
Second: LEELEQFARTFKQRRIKLGFTQGDVGLAMGKLYGNDFSQTTISRFEALNLSFKNMCKLKPLLEKWLNDTE [A69T]
The abundance fitness of the first is lower: -0.084 ± 0.057 for the first, 0.056 ± 0.069 for the second.

LEELEQFARTFKQRRIKLGFTQGDVGLAMGKLYGNDFSQTTISRFEALNLSFKNMCKLKPLLEKWLNDYE [A69Y] and LEELEQFARTFKQRRIKLGFTQGDVGLAMGKLYGNDFSQTTISRFEALNLSFKNMCKLKPLLEKWLNDAF [E70F] are within error of each other in abundance fitness: -0.107 ± 0.093 for the first, -0.2 ± 0.19 for the second.

LEELEQFARTFKQRRIKLGFTQGDVGLAMGKLYGNDFSQTTISRFEALNLSFKNMCKLKPLLEKWLNDAC [E70C] and LEELEQFARTFKQRRIKLGFTQGDVGLAMGKLYGNDFSQTTISRFEALNLSFKNMCKLKPLLEKWLNDAH [E70H] are within error of each other in abundance fitness: -0.092 ± 0.12 for the first, -0.341 ± 0.15 for the second.

LEELEQFARTFKQRRIKLGFTQGDVGLAMGKLYGNDFSQTTISRFEALNLSFKNMCKLKPLLEKWLNDAK [E70K] and LEELEQFARTFKQRRIKLGFTQGDVGLAMGKLYGNDFSQTTISRFEALNLSFKNMCKLKPLLEKWLNDAM [E70M] are within error of each other in abundance fitness: -0.128 ± 0.085 for the first, -0.072 ± 0.11 for the second.

LEELEQFARTFKQRRIKLGFTQGDVGLAMGKLYGNDFSQTTISRFEALNLSFKNMCKLKPLLEKWLNDAR [E70R] and LEELEQFARTFKQRRIKLGFTQGDVGLAMGKLYGNDFSQTTISRFEALNLSFKNMCKLKPLLEKWLNDAW [E70W] are within error of each other in abundance fitness: -0.164 ± 0.052 for the first, -0.073 ± 0.065 for the second.

LEELEQFARTFKQRRIKLGFTQGDVGLAMGKLYGNDFSQTTISRFEALNLSFKNMCKLKPLLEKWLNDAQ [E70Q] and LEELEQFARTFKQRRIKLGFTQGDVGLAMGKLYGNDFSQTTISRFEALNLSFKNMCKLKPLLEKWLNDAT [E70T] are within error of each other in abundance fitness: -0.07 ± 0.072 for the first, -0.086 ± 0.089 for the second.

LEELEQFARTFKQRRIKLGFTQGDVGLAMGKLYGNDFSQTTISRFEALNLSFKNMCKLKPLLEKWLNDAV [E70V] and LEELEQFARTFKQRRIKLGFTQGDVGLAMGKLYGNDFSQTTISRFEALNLSFKNMCKLKPLLEKWLNDAP [E70P] are within error of each other in abundance fitness: -0.035 ± 0.042 for the first, -0.253 ± 0.22 for the second.

LEELEQFARTFKQRRIKLGFTQGDVGLAMGKLYGNDFSQTTISRFEALNLSFKNMCKLKPLLEKWLNDAA [E70A] and LEELEQFARTFKQRRIKLGFTQGDVGLAMGKLYGNDFSQTTISRFEALNLSFKNMCKLKPLLEKWLNDAG [E70G] are within error of each other in abundance fitness: -0.047 ± 0.07 for the first, -0.072 ± 0.069 for the second.

First: LEELEQFARTFKQRRIKLGFTQGDVGLAMGKLYGNDFSQTTISRFEALNLSFKNMCKLKPLLEKWLNDAY [E70Y]
Second: LEELEQFARTFKQRRIKLGFTQGDVGLAMGKLYGNDFSQTTISRFEALNLSFKNMCKLKPLLEKWLNDAD [E70D]
The abundance fitness of the first is lower: -0.195 ± 0.11 for the first, 0.054 ± 0.054 for the second.

LEELEQFARTFKQRRIKLGFTQGDVGLAMGKLYGNDFSQTTISRFEALNLSFKNMCKLKPLLEKWLNDAS [E70S] and LEELEQFARTFKQRRIKLGFTQGDVGLAMGKLYGNDFSQTTISRFEALNLSFKNMCKLKPLLEKWLNDAN [E70N] are within error of each other in abundance fitness: 0.071 ± 0.084 for the first, -0.066 ± 0.16 for the second.
